Measured values as given in paper PMC7596997.
Values belong to the substance of their own block, whether it stands above or below them.

How the values were obtained:
[1] = target: cytosolic domain of yeast Tom70 (His-Tom70_(38–617)) (yeast (Saccharomyces cerevisiae)) (UniProt P07213); assay: pull-down; purified His-Tom70cd (50 pmol per 100 μl) pre-bound to Ni-NTA beads, incubated 40 min at 30 °C with typically 7% (v/v) reticulocyte lysate containing the [35S]-labelled protein; 10 mM MOPS/KOH, 20 mM imidazole, 150 mM KCl, 1% BSA, pH 7.2; eluted with 1 M imidazole, SDS-PAGE, phosphorimager; in some samples the bead-bound Tom70cd was pretreated with NEM and washed before the lysate was added
[2] = target: Tom70cd pretreated with N-ethylmaleimide (NEM) (yeast (Saccharomyces cerevisiae)) (UniProt P07213); assay: as above
[3] = target: Tom70 in the outer membrane of isolated yeast mitochondria (wild type) (S. cerevisiae (endogenous in isolated yeast mitochondria)) (UniProt P07213)
Chain of Tom70 in the outer membrane of isolated yeast mitochondria (wild type) (S. cerevisiae (endogenous in isolated yeast mitochondria)) (P07213 whole entry): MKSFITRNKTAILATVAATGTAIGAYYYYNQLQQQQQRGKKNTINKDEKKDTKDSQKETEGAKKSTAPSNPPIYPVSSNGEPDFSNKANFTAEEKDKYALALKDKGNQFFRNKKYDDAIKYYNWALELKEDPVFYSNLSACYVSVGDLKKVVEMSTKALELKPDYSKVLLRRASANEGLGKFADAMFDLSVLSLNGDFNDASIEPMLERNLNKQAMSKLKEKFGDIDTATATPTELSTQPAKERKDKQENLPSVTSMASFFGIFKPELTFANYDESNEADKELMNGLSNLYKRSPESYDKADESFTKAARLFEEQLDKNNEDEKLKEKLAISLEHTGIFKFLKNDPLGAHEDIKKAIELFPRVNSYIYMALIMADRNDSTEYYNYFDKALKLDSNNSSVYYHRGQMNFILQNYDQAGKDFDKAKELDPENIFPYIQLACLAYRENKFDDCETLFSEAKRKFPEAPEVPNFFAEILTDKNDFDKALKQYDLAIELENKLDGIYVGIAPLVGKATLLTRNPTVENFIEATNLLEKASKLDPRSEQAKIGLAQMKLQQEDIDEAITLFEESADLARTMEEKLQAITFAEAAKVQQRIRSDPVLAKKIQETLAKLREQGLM

Chain of cytosolic domain of yeast Tom70 (His-Tom70_(38–617)) (yeast (Saccharomyces cerevisiae)) (P07213 38-617): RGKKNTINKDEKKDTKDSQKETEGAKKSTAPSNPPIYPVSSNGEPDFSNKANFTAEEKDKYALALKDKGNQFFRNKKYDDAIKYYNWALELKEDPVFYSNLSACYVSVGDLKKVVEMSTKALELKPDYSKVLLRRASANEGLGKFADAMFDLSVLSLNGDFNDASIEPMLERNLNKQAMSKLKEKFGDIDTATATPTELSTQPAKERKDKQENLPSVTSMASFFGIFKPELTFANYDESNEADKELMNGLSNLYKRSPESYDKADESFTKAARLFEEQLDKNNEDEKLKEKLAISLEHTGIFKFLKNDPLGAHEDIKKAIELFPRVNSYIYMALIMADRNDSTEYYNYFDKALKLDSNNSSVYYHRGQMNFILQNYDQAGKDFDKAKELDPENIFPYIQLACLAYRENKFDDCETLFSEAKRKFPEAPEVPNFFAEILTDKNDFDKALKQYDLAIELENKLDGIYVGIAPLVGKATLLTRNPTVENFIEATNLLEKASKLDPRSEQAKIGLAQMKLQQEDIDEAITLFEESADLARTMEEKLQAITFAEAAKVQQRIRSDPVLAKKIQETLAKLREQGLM
Chain of AAC_(Δpos) (AAC with all positively charged residues of the matrix loops exchanged against glycine) (P02723 whole entry, stated change not applied): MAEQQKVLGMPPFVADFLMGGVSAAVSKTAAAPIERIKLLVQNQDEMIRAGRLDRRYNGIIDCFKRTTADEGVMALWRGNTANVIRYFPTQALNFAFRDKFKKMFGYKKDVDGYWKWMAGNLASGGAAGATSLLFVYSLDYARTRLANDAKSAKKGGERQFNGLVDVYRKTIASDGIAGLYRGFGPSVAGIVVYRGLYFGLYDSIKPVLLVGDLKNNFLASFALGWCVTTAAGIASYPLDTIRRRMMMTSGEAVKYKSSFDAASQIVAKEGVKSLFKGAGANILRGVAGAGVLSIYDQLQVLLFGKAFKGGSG
Chain of Tom70cd pretreated with N-ethylmaleimide (NEM) (yeast (Saccharomyces cerevisiae)) (P07213 38-617): as the sequence (P07213 38-617) above
Chain of S. cerevisiae AAC2 (P18239 whole entry): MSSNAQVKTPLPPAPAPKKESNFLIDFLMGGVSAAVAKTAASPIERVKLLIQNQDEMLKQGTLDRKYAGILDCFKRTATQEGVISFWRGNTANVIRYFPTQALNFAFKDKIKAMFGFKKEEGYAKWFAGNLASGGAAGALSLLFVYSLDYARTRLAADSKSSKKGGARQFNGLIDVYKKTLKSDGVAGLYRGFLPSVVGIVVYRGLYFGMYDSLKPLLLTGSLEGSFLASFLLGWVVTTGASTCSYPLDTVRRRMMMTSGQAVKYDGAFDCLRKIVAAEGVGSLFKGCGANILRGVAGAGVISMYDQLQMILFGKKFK
Chain of ADP/ATP carrier (AAC) of Neurospora crassa, wild type (P02723 whole entry): as the sequence (P02723 whole entry, stated change not applied) above

percent of the total radiolabelled protein bound [1]: 15 to 20%
Substance: AAC_(Δpos) (AAC with all positively charged residues of the matrix loops exchanged against glycine) (from UniProt P02723 1-313) (natural protein)

reduction of the binding efficiency against untreated Tom70cd [2]: 50%
Substance: ADP/ATP carrier (AAC) of Neurospora crassa, wild type (from UniProt P02723 1-313) (natural protein)

decrease in binding of [35S]-AAC2 to isolated mitochondria containing wild type Tom70, pretreated with 2 mM NEM against untreated (Fig. 3f) [3]: 50%
Substance: S. cerevisiae AAC2 (from UniProt P18239 1-318) (natural protein)
